According to a protein production outcome set (Wang et al. 2014):

Test: label from the status in PepcDB records

Sequence	protein production
MTTPIRVVVWNEFRHEKKDEQVRAIYPEGMHTVIASYLAEAGFDAATAVLDEPEHGLTDEVLDRCDVLVWWGHIAHDEVKDEVVERVHRRVLEGMGLIVLHSGHFSKIFKKLMGTTCNLKWREADEKERLWVVAPGHPIVEGIGPYIELEQEEMYGEFFDIPEPDETIFISWFEGGEVFRSGCTFTRGKGKIFYFRPGHETYPTYHHPDVLKVIANAVRWAAPVNRGEIVFGNVKPLEPIKAKQGGVTQ	not failed
MTTPVDAPKWPRQIPYIIASEACERFSFYGMRNILTPFLMTALLLSIPEELRGAVAKDVFHSFVIGVYFFPLLGGWIADRFFGKYNTILWLSLIYCVGHAFLAIFEHSVQGFYTGLFLIALGSGGIKPLVSSFMGDQFDQSNKSLAQKAFDMFYFTINFGSFFASLSMPLLLKNFGAAVAFGIPGVLMFVATVFFWLGRKRYIHMPPEPKDPHGFLPVIRSALLTKVEGKGNIGLVLALIGGVSAAYALVNIPTLGIVAGLCCAMVLVMGFVGAGASLQLERARKSHPDAAVDGVRSVLRILVLFALVTPFWSLFDQKASTWILQANDMVKPQWFEPAMMQALNPLLVMLLIPFNNFVLYPAIERMGVKLTALRKMGAGIAITGLSWIVVGTIQLMMDGGSALSIFWQILPYALLTFGEVLVSATGLEFAYSQAPKAMKGTIMSFWTLSVTVGNLWVLLANVSVKSPTVTEQIVQTGMSVTAFQMFFFAGFAILAAIVFALYARSYQMQDHYRQAT	failed
MTTRRLALFDLDHTLLPLDSDYQWADFLARTGRAGDPAEARRRNDDLMERYNRGELTAEQAAEFMLGLLAAHSPVELAAWHEEFMRDVIRPSLTVQAVDVVRGHLAAGDLCALVTATNSFVTAPIARAFGVQHLIATDPEYRDGRYTGRIEGTPSFREGKVVRVNQWLAGMGLALGDFAESYFYSDSVNDVPLLEAVTRPIAANPSPGLREIAQARGWQVIDLFDHLEDAKS	not failed
MTTTFEFLQPRIHGFATCCSSNSLLYSKASRFFNDRCRVYRQNPNRFVSNSITLPLQKKQVTVLRNHERFNLWDGFSRKKSRLVVNCQEDDQNESSSEEEESSQSTPAKSERKREKKEDKVWWSKGKKWQWQPIIQAQGIGVLLLQLSVVMFVMRLLRPGIPLPGSEPRIQTTFVSVPYSEFLSKVNSNQVQKVEVDGVQVLFKLRDDGKWQESETSRLSQSSESLLRTVAPTKRVVYSTTRPGDIKTPYEKMLGNNVEFGSPEKRSGGFFNSALIALFYIAVLAGLIRFPVSFSTSSTGQLRTRKAGGPDGGKVSGGGETITFADVAGVDEAKEELEEIVEFLRNPEKYVRLGARPPRGVLLVGLPGTGKTLLAKAVAGEAEVPFISCSASEFVELYVGMGASRVRDLFARAKKEAPSIIFIDEIDAVAKSRDGKFRMGSNDEREQTLNQLLTEMDGFDSNSAVIVLGATNRADVLDPALRRPGRFDRVVTVETPDKIGRESILRVHVSKKELPLGDDVNLGSIASMTTGFTGADLANLVNEAALLAGRKNKTNVEKIDFIQAVERSIAGIEKKSARLKGNEKAVVARHEAGHAVVGTAVANLLTGQPRVEKLSILPRTGGALGFTYIPPTSEDRYLLFIDELLGRLVTLLGGRAAEEVVYSGRISTGAFDDIRRATDMAYKAVAEYGLNQKIGPVSVATLSGGGIDDSGGSPWGRDQGKLVDLVQKEVTILLQSALDVALSVVRANPDVLEGLGAQLEEKEKVEGEELQKWLSMVVAPEELAVFVEGKQELLLPAQASSS	failed
MTTTIHMLTIIILCGIVTWLTRIIPFVMISKVHLSERVVKWLSFIPITLFTALIIDGVLVQQEGVMGYTINMPFLITMIPTIVVAIVSRSLTITILSGIIIMALLRWVF	failed
MTTTMSTLPVVLVDEILARVPITSLRSLRSTCKKWEASSKTNLVGGKATARKSSHVGFILIGDKICSMKLDLNGGDDFVDTSVNQVSAFDGFAISQLFHCDGLLFCISNNHYSNYTLMVCNMYLGETRLIQNRSLFESYQNFCSYAFGYDSSKNRNHKILRNNSVSGGYEIYSLKSDSWKDLNVDLEKSIHLWRLGSVSLKGNAYFRVIKVIEEGVWEYNLLCFDFTRESFGKLLSLPFESLGDEGEGIMVISCVRDDHLAVLYQRDTLGIWISTEIEPNKVSWREFLQVDLATLDGFPDVFIAGRFIVDEEKQVVVVFGQETELDLNHGNAFIFGRDGYFTSFTVGDAPPEDFTSYVPSLVSLQIDKTGKRKARDD	failed
MTTTTAQPAASLAAALEHAERLLEVDPVMAAEQARAILEVVPRHADTTRVLAAAQRLSGDAEGGLATVAPLAMALPNLPLAQLELALCLERLGRTAEAARAFDRVSALEPRLSEAWRGLSESLELLGDRQGAERALARQLRASTRDPLLVEAATALAEDRLGEAERLLRDRLKADAGDVAAIRMLAETGARLGRYADAEALLTRCMELAPNFAAARHNLATMLYRQNKNLEALAQIEQLVAKDARHPGYANLYAAILARLGEYDRAIAVYGQVLADYPNQPKGWMSYGHALKTVGRQADSVAAYRKALDLAPTLGEVWWSLANLKTVRFTPEDLAAMSQALEAEGLSEDDRLHLHYALGKAQEDAQDWDASFQHYAAGAAIRREQLDYDADENTADTVRTKAVFSPAFIAARGGQGCAAPDPIFVVGLPRSGSTLVEQILASHSLVEGTMELPDLIVMARRLGGKTAKRAESTYPESLAELSPEDLRALGEEFLERTRIQRKTDKPFFIDKMPNNFAHTGLIHLILPNAKIIDARRHPLGCCFSGFKQHFARGQAFSYDLTDIGRYYADYVDLMAHFDAVLPGRVHRVIYERMIADPEAEIRALLDHCGLPFEEACLSPHENDRAVRTASSEQVRRPIFKDAVEHWQKFESHLGPLKQALGPVLTAYPDAPVI	failed
MTTVAVSSLPQGTSVTLRNVTKSFGTTKVLNGLDLNIHSGELVALLGPSGCGKSTLLRIIAGFEAADQGSVLLDDVDVSGVPTNRRDIGLVFQAYSLFPHLNAVENVMYGLSIRHVAKTEAKSSAVELLASVGLADYADRYPAQLSGGQQQRVALARALATKPRVLLLDEPLSALDAKVRVQLRDEIRALQLETHTTTIMVTHDQEEALVMADRIAVMYNGRFEQVGTPAEIYHSPATAFVAGFVGSMNVLPGVLSTDGTAQTIGCRVPVHAAAGAATLNPGPVDVFVRPEELRLQIANDDLNDHDAVLGTVTSTVLRGAFTSVMVAMGDGLHLRVDLPSKDAQLFTPGCSVMVRIADEPMLCTARRVECVA	failed
MTVAPFDTAKLDRLMEEAGIDVIAATSKHNTQYLMGGYKFIFFAAMDAIGHSRYLPMVIYEKGAPDHSAYVGNRMEGAEHQNNPFWTPAVHTATWGTQDAAGLAVEHLKKIGKASGRIGIEPAFLPSDARDLLASRLDGARFVDATHVLERLRAVKTADELAKLRRASELITDSMLATIAAARAGSTKLEIIEQLRREETNRGLHFEYCLLTLGASHNRAGSPQAWAEGEILSIDSGGNYHGYIGDLCRMGVLGEPDAELEDLLAEVERIQQAAFAKVRAGVLGSEMIVAAEAELKASPSAAFTDFFCHGMGLITHEAPFLMTNHPVAYEGIDADKPLEAGNVISVETTMLHPKRGFIKLEDTLAITDKGYEMFGDRGRGLEHHHHHH	failed
MTVAQQAPSALNFDCETGNYHTFCPISCVSWLYQKIEDSFFLVIGTKTCGYFLQNAMGVMIFAEPRYAMAELEEGDISAQLKDYEELKRLCLQIKRDRNPSVIVWIGTCTTEIIKMDLEGLAPQLEAEIGIPIVTARANGLDYAFTQGEDTVLASMAHKCPTSAQVQGEDKEERNAIQKLLTFGRKADQEKVESEYVDHQPLVLFGSLPDPVVTNLTLELKKQGVKVSGWLPAKRYTELPVIDEGYYVAGVNPFLSRTATTLMRRRKCKLIGAPFPIGPDGTRAWIEKICSVLGIEPQGLEEREAQIWASLEDYIQLIRGKSVFFMGDNLLEVSLARFLIRCGMTCPEIGIPYMDKRYQAAELALLEKTCSDMGVPLPNIVEKPDNYNQIQRIKALQPDLVITGMAHANPLEAQGINTKWSVEFTFAQIHGFTNARDILELATRPLRRNSQLGELGWDKLIAKDVPAQV	failed
